Data from patent US20160053277A1, “Compositions Having Dicamba Decarboxylase Activity and Methods of Use” (PIONEER HI-BRED INTERNATIONAL, INC., priority 2013, published 2016).

B1: 52 (protein, listed as Streptomyces sp.)
chain: MAKIIALEEHFSDPAVAKAGAARAQALSPGFAASYSPASGLPYSPSPEVLENLAEKRLADMDAGGITMQVLSGLSAQTVPADVAPALVAGSNDKAAAAVRAHPDRFAAFAALPTAAPEAAVAELDRSVNELGFVGTLIMGRTEGEFLDAPRFEPILARAAALKVPVFLHPGVPPREITDSNYAAGLPTGIGTRLQTAAWGWHQETAVHFLHLVHSGVLDRYPDLQFILGHWGETIPFYLDRVDEALPQRATGLDRSFHEYFRENVYLAPSGMWSQAQLRFCLETFPLERIVFAVDYPFIGNEGAVPFLEKAELPEADKRKIAHENAERLLGL
B2: 54 (protein, listed as Streptomyces sp.)
chain: MAKIIALEEHFSDPAVAKAGAARAQALSPGFAASYSPASGLPYSPSPEVLENLAEKRLADMDAGGITMQVLSGLGAQTVPADVAPALVAGSNDKAAAAVRAHPDRFAAFAALPTAAPEAAVAELDRSINELGFVGTLIMGRTEGEFLDAPRFEPILARAAALKVPVFLHPGVPPREITDSNYAAGLPTGIGTRLQTAAWGWHQETAVHFLHLVHSGVLDRYPGLQFILGHWGEMIPFYLDRVDEALPQRATGLDRSFHEYFRENVYLAPSGMWSQAQLRFCLETVPLERIVFAVDYPFIGNEGAVPFLEKAELPEADKRKIAHENAERLLGL
B3: 50 (protein, listed as Streptomyces sp.)
chain: MARIVTLEEHWTDPAVTAAGMPNLLDHVPGYAAAFDPDTGMPYPRHPELLEDLGAARIADMDRHGITTQVLSLVNTFLPADVAPRLTAAANDAMAAAVEAFPGRFAAFATLPTAVPGAAADELRRCVGELGFVGTMIMGRTDGEFLDQPRFDPILRAASDLSVPVYLHPAPPPVAVSEASYAGGLSPAVSAAFRLAAWGWHQETAVHLLHLVLAGVLDRYPGLQFVLGHWGEFIPFYLDRLDESMPRRMTGLDRTFREYFRDNVFITPSGMFSQAQLRYCADTVGTDRIIHSVDFPMLGNEGAVSFLTDSHLSREDQEKIAHGNADALLGLG
B4: 51 (protein, listed as Mycobacterium gilvum)
chain: MARVIAIEEHYAHPGLQPAEALANLRKHPQLARIQDKLEDLGAGRLADMDAAGIDMQVLSHTVPGAEALPAAQAVDVVRQTNDDLAEVIAAHPDRFAGFAALPMRDPQAAATELQRAVGTLGFCGAMINGLIEGRFLDHPDFTPLLSTAADLGVPLYLHPSFPPPQVAQIYFGGLPPVLADLLATAGWGWHAETALHVLRLISTGVFDRLPELRVIVGHMGEMIPFALARIDTVLSPMTELRQPVAQYFQTNVWFTTSGYTTFPPLQCALSTVGIDRLIFSVDYPYTDNASARALLDTAPISPVDREKLAHATVEALLRV
B5: 53 (protein, listed as Granulicella tundricola)
chain: MARTITLEEHFVTDSFLRATGAYDKPAPPWLAQLQPKLLDLGDGRIAAMDEAGIDLQVLSLAALGFDALDAATATPLVHDINDELAAAVRANPTRLAAFASLALKDPQSAARELERAIQKLGFRGVLLDGTTDGLFLDDPRFTPVFEAAVALNVPIYLHPAPPPESVFDTYFTGLPEGVGQMLSIAGWGWHAETALHTLRLITNGVFDRYPTLQLIIGHMGEMLPMALARTSKALSHAARLRQPVAAYFQSNIHLTTSGYFTQPPLRCALDVVGIDRLMFSIDYPFSANTLGRDYLTELEQTLTPEDLAKLIHRNAESLLNLS

Key:
[1] = 14C assay with IPTG-induced recombinant E. coli cells: 14CO2 captured from [14C]-carboxyl-labeled dicamba; conditions: for decarboxylation activity of dicamba: among the 108 sequences tested, recombinant E. coli cells; for Enzymatic Detection level: dicamba decarboxylation activity of the protein of the given SEQ ID NO, High / Low / No; for Dicamba Decarboxylase Activity: induced recombinant E. coli cells, [14C]-carboxyl-labeled dicamba, 14CO2 capture
[2] = Saturation mutagenesis of SEQ ID NO:109: dicamba decarboxylation activity of point mutants (carbon dioxide released); conditions: decarboxylation activity (carbon dioxide released) of point mutant compared with unmutated backbone protein; backbone SEQ ID NO: 109

Molecule	decarboxylation activity of dicamba [1]	Enzymatic Detection level [1]	Dicamba Decarboxylase Activity [1]	Fold Activity [2]
B1	showed decarboxylation activity of dicamba	High	High	1.9
B2	showed decarboxylation activity of dicamba	High	High	1.4
B3	showed decarboxylation activity of dicamba	High	High	1.7
B4	showed decarboxylation activity of dicamba	High	High	1.7
B5	showed decarboxylation activity of dicamba	High	High	1.6
